This note sets out measurements from patent US20100143379A1 (priority 2005, published 2010).

Format in all cases: cell-based
The test system of assay [1] is R5 (ADA) strain of HIV-1. In words: HIV-1 replication in PHA-activated PBMC cultures (RT activity). To be noted: 50 ng/ml; p<0.01. How it is done: (§1) At indicated time points after infection, reverse transcriptase activity was measured in culture supernatants. Results are mean±SD. Whereas differences between MIF-treated and control cultures of ADA-infected PBMCs are highly statistically significant (p<0.01), differences between MIF-treated and control cultures of LAI-infected cells are not significant (p>0.05).
(§2) At indicated time points after infection, reverse transcriptase activity was measured in culture supernatants. Whereas differences between MIF-treated and control cultures of ADA-infected PBMCs are highly statistically significant (p<0.01), differences between MIF-treated and control cultures of LAI-infected cells are not significant (p>0.05) (FIG. 8).

Assay [2] has as its system X4 (LAI) strain of HIV-1. The assay is described as above. To be noted: 50 ng/ml; p>0.05. How it is done:
as §1, §2

For assay [3], the system named is CCR5. The assay is described as follows: Cell surface receptor expression in monocyte-derived macrophages (FACS). To be noted: 50 ng/ml with PMB 10 μg/ml, 48 h. How it is done: Cell surface expression of CCR5 and CXCR4 was analyzed by FACS after staining with FITC-conjugated anti-CCR5 and PE-conjugated anti-CXCR4 antibodies (Pharmingen). Results (percent of receptor-positive cells) are shown as mean±SE for three performed experiments.
Cell surface expression of CCR5 and CXCR4 was analyzed by FACS after staining with FITC-conjugated anti-CCR5 and PE-conjugated anti-CXCR4 antibodies (Pharmingen) (FIG. 9).

In assay [4] the test system is ERK-1/2. In words: ERK-1/2 phosphorylation in murine embryonic fibroblasts and peritoneal macrophages. The conditions noted are these: wild-type, CD74-KO and CD44-KO cells. How it is done: Whole cell lysates then were prepared and analyzed by Western blotting with specific anti-phospho-ERK-1/2 (p-ERK1/2) or anti-total ERK/1/2 antibodies. […] Peritoneal macrophages were stimulated for 10 mins (Mitchell et al. (1999). J Biol Chem 274:18100-6) and the lysates then analyzed by Western blotting. […] Recombinant, sCD74 was incubated with MN overnight in a 3:1 molar ratio prior to addition to cells for 10 mins. Epidermal growth factor (EGF) was used as a positive control for ERK-1/2 phosphorylation (Yamamoto et al. (2003). Develop Biol 260:512-521). Data shown are representative of three experiments.
Signal Transduction Assays. […] The human CD74 ectodomain (CD74^73-232) was prepared recombinantly in soluble form (sCD74) as described previously (Leng et al. (2003). J Exp Med 197:1467-1476). […] Cells then were harvested and lysed in buffer containing 50 mM Hepes, pH7.5, 150 mM NaCl, 1.5 mM MgCl2, 1 mM EGTA, 1% Glycerol and 1% Triton X-100, and freshly added phosphatase and proteinase inhibitors (1 mM orthovanandate, 10 mM NaF, 10 μg/ml leupeptin, 25 μg/ml aprotinin and 50 μg/ml PMSF). For immunoblotting, 15-20 μg of cell lysate proteins were separated by 10% SDS-PAGE and transferred to PVDF Immobilon-P transfer membranes (Millipore). […]

Assay [5] has as its system PKA. In words: Western analysis of kinase phosphorylation in COS-7/CD74+CD44 cells. To be noted: 100 ng/ml for 10 minutes. How it is done: FIGS. 12A-12E show the phosphoserine content of CD74 and CD44 measured by ELISA. […] The ELISA values represent the mean±SD of triplicate measurements. Experiments were replicated twice. *P<0.02 versus corresponding control (Student's T test, two-tailed). […] Cell lysates were prepared and probed for PKA and PKC using phospho-specific, and total anti-PKA and anti-PKC antibodies.
Cell lysates were collected and analyzed by immunoblots using a pair of anti-phospho-PICA and anti-(total)-PKA antibodies, a pair of anti-phospho-PKC (all from Cell Signaling) and anti-(total)-PKC (Santa Cruz) antibodies, or a pair of anti-phospho-p56^lck (Cell Signaling) and anti-(total) p56^lck (sc-433, Santa Cruz) antibodies.

Assay [6] relates to Src. The assay is described as follows: Tyrosine kinase phosphorylation in COS-7/M6 transformants and MEFs (immunoblot). The conditions noted are these: COS-7 transformants and MEFs. The text has this:
Two members of the non-receptor, protein tyrosine kinase family, p56^lck and c-Src (Src), may physically associate with the intracytoplasmic domain of CD44 (Elaimin I. Taher (1996). J. Biol. Chem. 271:2863-2867 and Bourguignon et al. (2001). J. Biol. Chem. 276:7327-7336), and either kinase may lead to downstream ERK1/2 phosphorylation via a Ras-Raf-MEK-dependent pathway (Ishida et al. (1998). Circ Res 82:7-12; Migliaccio et al. (2000). EMBO J. 19:5406-5417; and Mahabeleshwar et al. (2003). J. Biol. Chem. 278:52598-52612). […] The level of p56^lck phosphorylation appeared less in the MEFs than in the COS-7 cells, which may be attributed to the lower level of expression of the p56^lck kinase in cells of fibroblast lineage (Oikawa et al. (2001). Immunol. 104:162-167), or to a higher activation and coupling efficiency of CD44 when over-expressed in COS-7 cells.
Signal Transduction Assays. […] The human CD74 ectodomain (CD74^73-232) was prepared recombinantly in soluble form (sCD74) as described previously (Leng et al. (2003). J Exp Med 197:1467-1476). […] Cells then were harvested and lysed in buffer containing 50 mM Hepes, pH7.5, 150 mM NaCl, 1.5 mM MgCl2, 1 mM EGTA, 1% Glycerol and 1% Triton X-100, and freshly added phosphatase and proteinase inhibitors (1 mM orthovanandate, 10 mM NaF, 10 μg/ml leupeptin, 25 μg/ml aprotinin and 50 μg/ml PMSF). […]
In general terms: In western blotting, separated proteins are transferred to a membrane and probed.

The test system of assay [7] is COS-7/CD74+CD44 cell line. The assay is described as follows: In vitro apoptosis, caspase-3 activity, COS-7 cell lines. To be noted: MIF 100 ng/ml; apoptosis inducers SNP and camptothecin, 24 hrs. How it is done: (§3) Apoptosis Studies. […] Cell lysates were collected, and caspase-3 activity analyzed using a colorimetric assay kit (R&D Systems). Cytoplasmic p53 content was analyzed as described previously (Mitchell et al. (2002). Proc Natl Acad Sci USA 99:345-350) by immunoblotting of mouse cytosolic fractions using a pair of anti-phospho-p53 (Ser15) (R&D Systems) and total anti-p53 antibodies (Cell Signaling); and for COS-7 cells, the anti-p53 (Ser15) and total anti-p53 antibodies (Cell Signaling). In vivo apoptosis studies followed the procedures of (Mitchell et al. (2002). Proc Natl Acad Sci USA 99:345-350), and were conducted after i.p injection of 15 mg/kg lipopolysaccharide (E. coli 0111:B4; Sigma). Mice were sacrificed 24 hrs after priming and the peritoneal macrophage cells collected and immediately analyzed for apoptosis by an ELISA that detects cytoplasmic oligonucleosomes (Roche Diagnostics). Primary macrophages also were immunostained by Alexa 488-conjugated, Annexin V (Invitrogen), and apoptotic cells enumerated by fluorescence microscopy.

The test system of assay [8] is p53. The assay is described as follows: Cytoplasmic Ser15-phosphorylated p53 content, COS-7 cells. To be noted: during apoptosis induction. How it is done: as §3

B1: MIF: macrophage migration inhibitory factor; recombinant mouse or human MIF purified essentially free of endotoxin (protein)
chain: PMFIVNTNVPRASVPDGFLSELTQQLAQATGKPPQYIAVHVVPDQLMAFGGSSEPCALCSLHSIGKIGGAQNRSYSKLLCGLLAERLRISPDRVYINYYDMNAANVGWNNSTFA
Take B1: the “R5 HIV-1 replication (RT activity)” value in assay [1] is reported as “reduced R5 HIV-1 replication”. In assay [2], the “X4 HIV-1 replication (RT activity)” value is given as “did not reduce replication”. Also, the CCR5 expression entry in assay [3] is listed as “substantially reduces CCR5 expression”. Moreover, the ERK-1/2 phosphorylation entry in assay [4] is reported as “induced ERK-1/2 phosphorylation only in wild-type cells”. In assay [5], the “phosphorylation of PKA” value is “MIF-dependent phosphorylation of PKA”. In assay [6], the Src phosphorylation entry is given as “An increase in the phosphorylation of the Src kinase was not detected”. For the same molecule, in assay [7], the protection from apoptosis entry is listed as “significant protective effect”. Also, the “intracytoplasmic content of Ser15-phosphorylated p53” value in assay [8] was “reduction in the intracytoplasmic content”.
